The values that follow are results of earlier work, collected in article PMC3995210.

In this series the target is dynein intermediate chain (IC) (Drosophila melanogaster) (UniProt Q24246). The experiment in a line: ITC.
Sequence of UniProt Q24246 (Q24246 whole entry): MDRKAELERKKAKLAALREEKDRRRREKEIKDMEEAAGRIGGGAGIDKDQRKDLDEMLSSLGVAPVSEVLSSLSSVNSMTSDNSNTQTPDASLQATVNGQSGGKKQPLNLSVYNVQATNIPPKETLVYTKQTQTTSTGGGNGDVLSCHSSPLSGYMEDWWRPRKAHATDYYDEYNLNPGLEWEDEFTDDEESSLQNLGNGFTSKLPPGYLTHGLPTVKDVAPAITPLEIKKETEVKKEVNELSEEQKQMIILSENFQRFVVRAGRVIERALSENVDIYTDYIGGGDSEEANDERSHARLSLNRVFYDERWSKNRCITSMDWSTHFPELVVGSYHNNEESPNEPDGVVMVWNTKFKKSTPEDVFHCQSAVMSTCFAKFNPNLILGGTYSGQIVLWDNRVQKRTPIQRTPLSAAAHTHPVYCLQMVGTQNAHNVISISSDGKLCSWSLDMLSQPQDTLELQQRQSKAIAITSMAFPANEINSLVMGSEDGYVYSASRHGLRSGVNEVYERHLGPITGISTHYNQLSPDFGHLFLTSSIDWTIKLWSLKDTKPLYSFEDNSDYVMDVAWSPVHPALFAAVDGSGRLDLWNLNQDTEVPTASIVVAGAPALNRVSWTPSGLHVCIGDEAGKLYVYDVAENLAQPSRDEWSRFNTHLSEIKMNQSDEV

For the substance LC8 (from UniProt Q24117), the Kd is 9.8 µM.
